We go through five molecules from patent US20220064331A1 (Genentech, published 2022).

The labels stand for the following.
T1: rat KLB (+N-ter FLAG) (rat, UniProt Q99N32 53-989 (mouse entry))
T1 construct: expressed from KLB cDNA on HEK293T cells and read by FACS
T1 chain: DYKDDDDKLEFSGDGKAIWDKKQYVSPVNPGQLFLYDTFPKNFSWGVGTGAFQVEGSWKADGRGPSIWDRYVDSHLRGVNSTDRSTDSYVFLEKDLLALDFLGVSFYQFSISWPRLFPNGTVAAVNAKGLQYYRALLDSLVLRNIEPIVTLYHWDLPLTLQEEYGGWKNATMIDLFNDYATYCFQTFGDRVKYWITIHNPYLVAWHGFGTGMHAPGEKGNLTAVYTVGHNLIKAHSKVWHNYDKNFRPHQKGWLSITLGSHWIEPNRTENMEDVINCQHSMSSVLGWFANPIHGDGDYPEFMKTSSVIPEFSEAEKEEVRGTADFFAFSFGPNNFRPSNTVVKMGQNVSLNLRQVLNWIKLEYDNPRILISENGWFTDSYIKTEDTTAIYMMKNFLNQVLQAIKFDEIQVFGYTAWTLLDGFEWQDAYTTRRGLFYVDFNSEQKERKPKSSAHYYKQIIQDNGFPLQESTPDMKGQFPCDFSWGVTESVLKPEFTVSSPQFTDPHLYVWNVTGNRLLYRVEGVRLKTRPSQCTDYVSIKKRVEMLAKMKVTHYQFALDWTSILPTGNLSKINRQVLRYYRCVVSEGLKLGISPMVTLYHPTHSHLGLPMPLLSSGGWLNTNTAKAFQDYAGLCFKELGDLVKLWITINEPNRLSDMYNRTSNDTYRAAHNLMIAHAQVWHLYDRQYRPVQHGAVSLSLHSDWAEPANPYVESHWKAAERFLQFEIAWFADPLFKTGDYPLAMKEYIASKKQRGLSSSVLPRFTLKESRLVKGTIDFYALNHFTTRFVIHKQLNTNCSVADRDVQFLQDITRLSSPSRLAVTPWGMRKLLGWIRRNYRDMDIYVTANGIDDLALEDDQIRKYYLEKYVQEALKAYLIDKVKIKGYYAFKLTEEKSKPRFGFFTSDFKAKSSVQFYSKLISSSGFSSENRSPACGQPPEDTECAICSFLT

T2: cynomolgus monkey KLB (+N-ter FLAG) (cynomolgus monkey, UniProt Q86Z14 53-991 (human entry))
T2 construct: expressed from KLB cDNA on HEK293T cells and read by FACS; also called Cyno KLB
T2 chain: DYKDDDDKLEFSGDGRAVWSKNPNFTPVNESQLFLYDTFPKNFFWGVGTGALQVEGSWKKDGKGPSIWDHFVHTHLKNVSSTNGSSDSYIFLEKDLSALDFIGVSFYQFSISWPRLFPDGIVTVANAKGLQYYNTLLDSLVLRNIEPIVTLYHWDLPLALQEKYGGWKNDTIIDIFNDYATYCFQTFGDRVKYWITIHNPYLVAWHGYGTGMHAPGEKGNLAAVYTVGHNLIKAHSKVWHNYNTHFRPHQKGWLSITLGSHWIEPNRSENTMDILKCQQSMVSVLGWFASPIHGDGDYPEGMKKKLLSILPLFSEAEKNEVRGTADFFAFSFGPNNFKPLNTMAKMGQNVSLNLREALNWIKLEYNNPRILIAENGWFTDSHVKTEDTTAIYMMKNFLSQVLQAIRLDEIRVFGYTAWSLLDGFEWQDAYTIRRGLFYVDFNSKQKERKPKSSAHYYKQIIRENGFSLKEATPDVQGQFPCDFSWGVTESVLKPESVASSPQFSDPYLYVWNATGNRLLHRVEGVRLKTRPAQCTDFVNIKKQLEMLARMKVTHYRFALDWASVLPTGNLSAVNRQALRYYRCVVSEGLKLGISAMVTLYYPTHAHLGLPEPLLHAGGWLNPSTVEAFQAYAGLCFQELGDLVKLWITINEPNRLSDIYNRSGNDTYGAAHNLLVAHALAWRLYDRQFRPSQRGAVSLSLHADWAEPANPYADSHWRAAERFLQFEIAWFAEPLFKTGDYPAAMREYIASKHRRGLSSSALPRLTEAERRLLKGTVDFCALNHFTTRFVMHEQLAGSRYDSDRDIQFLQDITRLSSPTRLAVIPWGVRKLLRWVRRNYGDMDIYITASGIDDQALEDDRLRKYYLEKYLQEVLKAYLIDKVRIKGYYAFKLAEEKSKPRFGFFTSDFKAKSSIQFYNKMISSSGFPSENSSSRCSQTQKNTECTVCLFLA

B1: 21H3 (antibody, V domains shown)
VH: QVQLQQPGAEIVKPGASVRLSCKASGYSFTSYWIHWVKQRPGQGLEWIGEIDPSVSNSNYNQKFKGKATLTADKSSSTAYMQLSGLTSEDSAVYFCVRLGVMVYGSSPFWFAYWGQGTLVTVSA
VL: DIVMTQSQKFMSTSVGDRVSITCKASQFVSDAVAWYQQKPGQSPKLLICSASYRYTGVPDRFTGSGSGTDFTFTISSVRTEDLAVYYCQQHYIVPYTFGGGTTLEIE
notes: murine hybridoma-derived anti-KLB antibody
B2: 11F1 (antibody, V domains shown)
VH: EVQLVESGGGLVKPGGSLKLSCAPSGFTFSSYGISWVRQTPEKRLEWVATVSSGGRYTYYPDSVKGRFTISRDNAENTLYLQMSSLRSEDTAMYYCTRGGDGYALDYWGQGTSVTVSS
VL: DIQMTQTTSSLSASLGDRVTIICSASQVISNYLNWYQQKPDGTVKLLIYFTSSLRSGVPSRFSGSGSGTDYSLTISNLEPEDVATYFCQQYSKLPWTFGGGTKLELK
notes: as for B1
B3: 8C5 (antibody, V domains shown)
VH: QVQLKQSGPGLVQPSQSLSVACTVSDFSLTTYGVHWVRQSPGKGLEWLGVIWSGGSTDYNAAFISRLTISKDNSKSQVFFKMNSLQTTDTAIYYCARDYGSTYVDAIDYWGQGTSVTVSS
VL: DIVLTQSPTSLAVSLGQRATISCRASESVESYGNRYMTWYQQKPGQPPKLLIYRAANLQSGIPARFSGSGSRTDFTLTIDPVEADDVATYYCQQSNEDPWTFGGGTKVEIK
notes: murine hybridoma-derived anti-KLB antibody; also called KLBmAb1
B4: 46C3 (antibody, V domains shown)
VH: EVQLQQSGAELVKPGASVKLSCTASDFNIIDTYIHWVKQRPEQGLEWIGRIDPANGNTKYDPKFQDKAALTSDTDSNTAYLLFNSLTSEDTAVYYCARGTSYSWFAYWGQGTLVSVSA
VL: AVLMTQTPLSLPVSLGDQASISCRSSQNIVHSDGNTYLEWYLQKPGQSPKLLIYKVSNRFSGVPDRFSGSGSGRDFTLKISRVEAGDLGVYYCFQGSHVLTFGAGTRLELK
notes: as for B1
B5: 14E6 (antibody, V domains shown)
VH: EVPLQQSGPELVKPGATVKISCKPSGDTFTEYTMNWVRQSHGKSLEWIGGINPNNGETSYNQKFKGKATLTVDKSSSTAFMDLRILTSEDSAVYFCARKTTNYWGQGTTLIVSS
VL: DIQMTQSPSSLSASLGERVSLTCRASQEISGYLSWLQQKPDGTIKRLIYAASTLDSGVPRRFSGSRSGSDYSLTISSLESEDFADYYCLQYGSYPWTFGGGTKLELK
notes: as for B1

The first test addresses T1, rat KLB (+N-ter FLAG). The test is described as follows: FACS on transfected HEK293T cells. Here is the method:
(§1) Species cross reactivity of the disclosed anti-KLB antibodies were analyzed by FACS analysis using KLB cDNA from mouse, rat, rabbit, cynomolgus monkey and rhesus monkey cloned into pRK mammalian expression vectors transiently transfected into HEK293T cells. The KLB extracellular domain polypeptide sequences that were expressed are as follows: […]
For B1, the binding result is listed as “no binding”.
Same read-out and setting: in the case of B2 it was “no binding”.
Still for that read-out and setting: in the case of B3 it was “binds”; in that of B4, “no binding”.
Still for that read-out and setting: to B5 belongs “binds”.

The next test deals with T2, cynomolgus monkey KLB (+N-ter FLAG). The test is described as follows: FACS on transfected HEK293T cells. The protocol: as §1
As to B1, the binding result is reported as “binds”.
As to B2, the binding result is on record as “binds”.
Still for that read-out and setting: in the case of B3 it was “binds”.
Same read-out and setting: in the case of B4 it was “no binding”.
The same measure, in the same setting: to B5 belongs “binds”.

The target of a further test is T3, human KLB expressed on cells (human, UniProt Q86Z14 53-1044).
T3 construct: on transfected 293 / HEK293 cells; also called hKLB; beta-Klotho
The test is described as follows: FACS on cells expressing hKLB, hKLA and chimeras; domain of hKLB recognized.
As to B1, the binding result was “binds”.
Regarding B2, the binding result is recorded as “binds”.
B4: the binding result is reported as “binds”.
Still for that read-out and setting: to B5 belongs “binds”.

The next test concerns the target T3, human KLB expressed on cells. The test is described as follows: FACS on 293 cells expressing hKLB, antibody at 0.8 µg/ml, median shift.
Take B3: the binding result was “binds”.

For the next test, the target named is T4, hKLB-ECD-HIS protein (human, UniProt Q86Z14 53-996).
T4 construct: recombinant hKLB-ECD-HIS protein (R&D Systems); also called recombinant KLB-ECD protein; not shown: HIS tag
Put plainly: ELISA on hKLB-ECD-HIS protein, chimeric IgG (murine variable, hIgG1 constant regions), OD450. The source says: In addition, some of the antibodies were ranked by ELISA. For these experiments, anti-KLB antibodies that were chimeric recombinant IgG with murine variable regions and hIgG1 constant regions were used to measure binding to hKLB-ECD-HIS protein.
Regarding B2, the binding result is reported as “binds”.
In the case of B3, the binding result is recorded as “binds”.
Same read-out and setting: to B5 belongs “binds”.
